The target of test [1] is T1, His-tagged mouse MOG (8536-MO, R&D Systems) (mouse, UniProt Q61885 29-156, limits assumed).
T1 construct: Bought; also called mouse soluble MOG; not shown: His tag
T1 sequence (looked up): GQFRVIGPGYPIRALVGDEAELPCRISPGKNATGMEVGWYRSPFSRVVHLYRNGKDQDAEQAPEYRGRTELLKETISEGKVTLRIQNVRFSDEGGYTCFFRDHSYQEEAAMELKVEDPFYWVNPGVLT
Nature of the test: Gyrolab xP immunoassay of antibody-antigen complex in C57BL/6J mouse plasma (albumin present), 2 nM antibody, 9 nM His-tagged mouse MOG. As to the method:
First, to bind the albumin-binding domain to albumin in plasma, each of the anti-mouse MOG antibodies mentioned above were diluted to 8 nM using C57BL/6J mouse plasma, and then incubated at room temperature for 40 minutes. Next, for binding of the anti-mouse MOG antibody to the target antigen, one equivalent of His-tagged mouse MOG (8536-MO, R&D Systems) diluted to 38 nM in mouse plasma was added to the antibody solutions, and then the solutions were incubated at room temperature for 1 hour 25 minutes.
To detect the antibody-antigen complexes, first, the anti-delta GK antibody (AF647-anti-delta GK) was labeled using an Alexa flour 647 labeling kit (A20186, Thermo Fisher Scientific) according to the attached protocols. […] (the final concentrations were 2 nM for the antibody, 9 nM for His-tagged mouse MOG, and 67 nM for AF647-anti-delta GK).
Measurement of antigen-antibody complexes were performed using Gyrolab xP. For the measurements using Gyrolab xP, Gyrolab Bioaffy 200 (P0004180, Gyros Protein Technologies) was used as the measurement disc. Biotinylated anti-His-tagged antibody (BAM050, R&D Systems) diluted to 10 micro g/mL with PBS 0.05% Tween 20 was added to the measurement disc, and then solid-phased on the reaction layer in the disc. A mixed solution of the labeled anti-delta GK antibody, anti-mouse MOG antibody (albumin switch molecule), and mouse MOG, incubated as described above, was added to the disc, and the anti-mouse MOG antibody-mouse MOG-AF647-anti-delta GK complex was captured by the solid-phased antibody. The amount of the captured complex was detected by the fluorescence signal of AF647 (Detect PMT 25%). The fluorescence signal of AF647 was analyzed by Gyro Evaluator (version 3.6.2.30, Gyros Protein Technologies).

The next test concerns the target T2, Mouse MOG (R&D system) (mouse, UniProt Q61885 29-156, limits assumed).
T2 construct: also called mouse soluble MOG; soluble MOG
T2 sequence (looked up): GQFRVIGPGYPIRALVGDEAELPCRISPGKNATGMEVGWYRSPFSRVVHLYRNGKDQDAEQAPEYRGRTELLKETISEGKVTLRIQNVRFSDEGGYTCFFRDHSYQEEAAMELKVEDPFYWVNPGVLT
In words: SPR (Biacore T200), antibody captured by anti-human Fc antibody, mouse MOG as analyte, 25 degrees C, no albumin. On the procedure:
Binding activities of the antibodies produced in Example 10 against mouse MOG were assessed using Biacore T200 (Cytiva).
As the running buffer, 50 mM Na Phosphate (pH 7.4), 150 mM NaCl, 0.05% Tween 20, and 0.005% NaN₃ was used, and the assessment was performed at 25 degrees C. First, anti-human Fc antibody (Cytiva) was used as a ligand-capturing molecule. Anti-human Fc antibody (Cytiva) was solid-phased on a Series S Sensor Chip CM4 (Cytiva) using an Amine Coupling Kit (Cytiva). Antibody solutions prepared using the running buffer was allowed to interact with this CM4 sensor chip to capture approximately 480 RU of the antibody. Mouse MOG (R&D system) was diluted to 0, 10, 40, 160, and 640 nM with the running buffer, and then bound to the captured antibody. The chip was regenerated using 3 M MgCl₂, and measurements were performed by repeatedly capturing antibodies. Dissociation constant (KD) of the respective antibodies for mouse MOG was calculated using Biacore T200 Evaluation Software 2.0. Specifically, the association rate constant ka (L/mol/s) and the dissociation rate constant kd (1/s) were calculated by global fitting of the sensorgrams obtained by measurement with the 1:1 Langmuir binding model, and the dissociation constant KD (mol/L) was calculated from these values.
(In general: In SPR one partner is held on a chip, and binding of the other changes the refractive index at the surface.)

The values below come from patent US20260209363A1 (Chugai, published 2026).

Broadly, the Kd is the concentration at which binding is half-saturated. A low value points to higher affinity. By koff is commonly meant the first-order rate constant of dissociation. Low readings indicate a long-lived complex, high ones a short-lived complex. As a reminder, the kon is the rate constant with which the complex forms.

B1: ABD094(H/L)-MOG//IC17 (bispecific antibody, human IgG1, kappa)
heavy 1: LAEAKEAANAELDSYGVSDFYKRLIDKAKTVEGVEALKDAILAALPRVTLRESGPTLVKPTQTLTLTCTFSGFSLSTSGVGVGWIRQPPGKALEWLALIFWDDDSHYSPSLKSRLTITKDTSKNQVVLTMTNMDPVDTATYYCARYYFGSGSYFPSYWYFDLWGRGTLVTVSSASTKGPSVFPLAPSSKSTSGGTAALGCLVEDYFPEPVTVSWNSGALTSGVHTFPAVLQSSGLYSLSSVVTVPSSSLGTQTYICNVNHKPSNTKVDERVEPKSCDKTHTCPPCPAPELRRGPSVFLFPPKPKDTLMISRTPEVTCVVVDVSHEDPEVKFNWYVDGVEVHNAKTKPREEQYNSTYRVVSVLTVLHQDWLNGKEYKCKVSNKALPAPIEKTISKAKGQPREPQVCTLPPSREEMTKNQVSLSCAVKGFYPSDIAVEWESNGQPENNYKTTPPVLDSDGSFFLVSKLTVDKSRWQQGNVFSCSVMHEALHNHYTQKSLSLSP
light 1: not shown
heavy 2: not shown
light 2: QVQLQQSGPQLVRPGASVKISCKASGYSFTSYWMHWVNQRPGQGLEWIGMIDPSYSETRLNQKFKDKATLTVDKSSSTAYMQLSSPTSEDSAVYYCALYGNYFDYWGQGTTLTVSSASVAAPSVFIFPPSDEQLKSGTASVVCLLNNFYPREAKVQWKVDNALQSGNSQESVTEQDSKDSTYSLSSTLTLSKADYEKHKVYACEVTHQGLSSPVTKSFNRGEC
notes: also called ABD094(H/L)-MOG307//IC17; anti-MOG albumin switch molecule
Consider B1, for which, in test [1], the “decrease in the signal derived from the complex, compared to MOG//IC17” value (from here on “decrease in the signal derived”) was 90%. Further, in the test with Mouse MOG (R&D system), the Kd was 1.91 nM, the koff was 1.39e-05 s⁻¹ and the kon came out at 7260 M⁻¹ s⁻¹.

B2: ABD094(H/L).N10-MOG//IC17 (bispecific antibody, human IgG1, kappa)
heavy 1: LAEAKEAANAELDSYGVSDFYKRLIDKAKTVEGVEALKDAILAALPGRVTLRESGPTLVKPTQTLTLTCTFSGFSLSTSGVGVGWIRQPPGKALEWLALIFWDDDSHYSPSLKSRLTITKDTSKNQVVLTMTNMDPVDTATYYCARYYFGSGSYFPSYWYFDLWGRGTLVTVSSASTKGPSVFPLAPSSKSTSGGTAALGCLVEDYFPEPVTVSWNSGALTSGVHTFPAVLQSSGLYSLSSVVTVPSSSLGTQTYICNVNHKPSNTKVDERVEPKSCDKTHTCPPCPAPELRRGPSVFLFPPKPKDTLMISRTPEVTCVVVDVSHEDPEVKFNWYVDGVEVHNAKTKPREEQYNSTYRVVSVLTVLHQDWLNGKEYKCKVSNKALPAPIEKTISKAKGQPREPQVCTLPPSREEMTKNQVSLSCAVKGFYPSDIAVEWESNGQPENNYKTTPPVLDSDGSFFLVSKLTVDKSRWQQGNVFSCSVMHEALHNHYTQKSLSLSP
light 1: not shown
heavy 2: not shown
light 2: QVQLQQSGPQLVRPGASVKISCKASGYSFTSYWMHWVNQRPGQGLEWIGMIDPSYSETRLNQKFKDKATLTVDKSSSTAYMQLSSPTSEDSAVYYCALYGNYFDYWGQGTTLTVSSASVAAPSVFIFPPSDEQLKSGTASVVCLLNNFYPREAKVQWKVDNALQSGNSQESVTEQDSKDSTYSLSSTLTLSKADYEKHKVYACEVTHQGLSSPVTKSFNRGEC
notes: ABD094 linked via N10 linker (G) at VH and VL N-termini of the MOG arm; also called ABD094.N10(H/L)-MOG//IC17; ABD094(H/L).N10-MOG307//IC17
As for B2, in test [1], the “decrease in the signal derived” value is 83%. In the test with Mouse MOG (R&D system), this molecule yielded a Kd of 5.53 nM, a koff of 9.46e-06 s⁻¹ and a kon of 1710 M⁻¹ s⁻¹.

B3: ABD094(H/L).N02-MOG//IC17 (bispecific antibody, human IgG1, kappa)
heavy 1: LAEAKEAANAELDSYGVSDFYKRLIDKAKTVEGVEALKDAILAALPGGGGSRVTLRESGPTLVKPTQTLTLTCTFSGFSLSTSGVGVGWIRQPPGKALEWLALIFWDDDSHYSPSLKSRLTITKDTSKNQVVLTMTNMDPVDTATYYCARYYFGSGSYFPSYWYFDLWGRGTLVTVSSASTKGPSVFPLAPSSKSTSGGTAALGCLVEDYFPEPVTVSWNSGALTSGVHTFPAVLQSSGLYSLSSVVTVPSSSLGTQTYICNVNHKPSNTKVDERVEPKSCDKTHTCPPCPAPELRRGPSVFLFPPKPKDTLMISRTPEVTCVVVDVSHEDPEVKFNWYVDGVEVHNAKTKPREEQYNSTYRVVSVLTVLHQDWLNGKEYKCKVSNKALPAPIEKTISKAKGQPREPQVCTLPPSREEMTKNQVSLSCAVKGFYPSDIAVEWESNGQPENNYKTTPPVLDSDGSFFLVSKLTVDKSRWQQGNVFSCSVMHEALHNHYTQKSLSLSP
light 1: not shown
heavy 2: not shown
light 2: QVQLQQSGPQLVRPGASVKISCKASGYSFTSYWMHWVNQRPGQGLEWIGMIDPSYSETRLNQKFKDKATLTVDKSSSTAYMQLSSPTSEDSAVYYCALYGNYFDYWGQGTTLTVSSASVAAPSVFIFPPSDEQLKSGTASVVCLLNNFYPREAKVQWKVDNALQSGNSQESVTEQDSKDSTYSLSSTLTLSKADYEKHKVYACEVTHQGLSSPVTKSFNRGEC
notes: ABD094 linked via N02 linker at VH and VL N-termini of the MOG arm; also called ABD094.N02(H/L)-MOG//IC17
B3: in test [1], the “decrease in the signal derived” value stood at 79%. In the test with Mouse MOG (R&D system), this molecule displayed a Kd of 0.0607 nM, a koff of 3.46e-07 s⁻¹ and a kon of 5700 M⁻¹ s⁻¹.
